Values of other authors, collected in publication PMC7930624.
“And” between values parts separate entries of the source, which are not always exact repeats. Identical values can stand only once.

Biological target: ACE2 (Homo sapiens) (UniProt Q9BYF1)
Sequence (Q9BYF1 18-740): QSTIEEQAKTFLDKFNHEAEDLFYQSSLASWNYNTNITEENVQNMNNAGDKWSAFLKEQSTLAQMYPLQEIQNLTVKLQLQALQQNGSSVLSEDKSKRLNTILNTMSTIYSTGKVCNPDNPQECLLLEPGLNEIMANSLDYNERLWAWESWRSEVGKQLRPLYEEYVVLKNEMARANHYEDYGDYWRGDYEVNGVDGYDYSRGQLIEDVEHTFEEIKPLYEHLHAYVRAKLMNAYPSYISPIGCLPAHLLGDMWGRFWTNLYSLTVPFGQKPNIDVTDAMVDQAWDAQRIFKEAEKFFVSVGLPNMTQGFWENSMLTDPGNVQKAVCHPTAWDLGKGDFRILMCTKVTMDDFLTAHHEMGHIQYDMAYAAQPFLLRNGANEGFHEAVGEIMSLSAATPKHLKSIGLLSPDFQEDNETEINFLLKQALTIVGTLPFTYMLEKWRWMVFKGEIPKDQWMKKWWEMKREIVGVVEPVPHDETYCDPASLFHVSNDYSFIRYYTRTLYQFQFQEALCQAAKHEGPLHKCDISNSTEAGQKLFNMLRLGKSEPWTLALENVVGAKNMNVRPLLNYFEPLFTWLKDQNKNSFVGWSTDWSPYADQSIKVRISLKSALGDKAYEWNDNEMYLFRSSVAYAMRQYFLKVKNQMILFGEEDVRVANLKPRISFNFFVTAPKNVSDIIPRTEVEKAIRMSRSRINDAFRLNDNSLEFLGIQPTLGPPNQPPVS

Sequence of Human defensin-5 (Q01523 63-94): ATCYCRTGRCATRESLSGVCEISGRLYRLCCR

Kd: 39.3 nM and 76.2 nM
Substance: Human defensin-5 (from UniProt Q01523)
